The subject of this data set is HEK293T. Kind of data set: plasma membrane surface immunostaining intensity (anti-HA, deep receptor scanning) (arbitrary fluorescence units); higher = higher plasma membrane expression.

± gives the uncertainty stated by the source.

Take “MEPEINCSELCDSFPGQELDRRPLHDLCKTTITSSHHSSKTISSLSPVLLGIVWTFLSCGLLLILFFLAFTIHCRKNRIVKMSSPNLNIVTLLGSCLTYSSAYLFGIQDVLVGSSMETLIQTRLSMLCIGTSLVFGPILGKSWRLYKVFTQRVPDKRVIIKDLQLLGLVAALLMADVILLMTWVLTDPIQCLQILSVSMTVTGKDVSCTSTSTHFCASRYSDVWIALIWGCKGLLLLYGAYLAGLTGHVSSPPVNQSLTIMVGVNLLVLAAGLLFVVTRYLHSWPNLVFGLTSGGIFVCTTTINCFIFIPQLKQWKAFEEENQTIRRMAKYFSTPNKSFHTQYGEEENCHPRGEKSSMERLLTEKNAVIESLQEQVNNAKEKIVRLMSAECTYDLPEGAAPPASSPNKDVQAVASVHTLAAAQGPSGHLSDFQNDPGMAARDSQCTSGPSSYAQSLEGPGKDSSFSPGKEEKISDSKDFSDHLDSGCSQKPWTEQSLGPERGDQVPMNPSQSLLPERGGSDPQRQRHLENSEEPPERRSRVSSVIREKLQEVLQDLGLGPEASLSTAPSCHQQTWKNSAAFSPQKMPLSKELGFSPYMVRRRRAAQRARSHFPGSAPSSVGHRANRTVPGAHSRLHVQNGDSPSLAPQTTDSRVRRPSSRKPSLPSDPQDRPGTLEGSKQSQTEPEGARGSKAAFLRQPSGSGRAPSPAAPCLSKASPDLPEQWQLWPPVPSGCASLSSQHSYFDTESSSSDEFFCRCHRPYCEICFQSSSDSSDSGTSDTDPEPTGGLASWEKLWARSKPIVNFKDDLKPTLV [GPR156]”: the “plasma membrane surface immunostaining intensity” value (GPCR class: C) amounted to 352 ± 30.

As for “MMCFLLIISSILVVFAFVLGNVANGFIALVNVIDWVNTRKISSAEQILTALVVSRIGLLWVMLFLWYATVFNSALYGLEVRIVASNAWAVTNHFSMWLAASLSIFCLLKIANFSNLISLHLKKRIKSVVLVILLGPLVFLICNLAVITMDERVWTKEYEGNVTWKIKLRNAIHLSSLTVTTLANLIPFTLSLICFLLLICSLCKHLKKMRLHSKGSQDPSTKVHIKALQTVTSFLMLFAIYFLCIITSTWNLRTQQSKLVLLLCQTVAIMYPSFHSFILIMGSRKLKQTFLSVLWQMTR [TAS2R19]”, the “plasma membrane surface immunostaining intensity” value (GPCR class: Taste) is 370 ± 230.

For the sequence “MMGLTEGVFLILSGTQFTLGILVNCFIELVNGSSWFKTKRMSLSDFIITTLALLRIILLCIILTDSFLIEFSPNTHDSGIIMQIIDVSWTFTNHLSIWLATCLGVLYCLKIASFSHPTFLWLKWRVSRVMVWMLLGALLLSCGSTASLINEFKLYSVFRGIEATRNVTEHFRKKRSEYYLIHVLGTLWYLPPLIVSLASYSLLIFSLGRHTRQMLQNGTSSRDPTTEAHKRAIRIILSFFFLFLLYFLAFLIASFGNFLPKTKMAKMIGEVMTMFYPAGHSFILILGNSKLKQTFVVMLRCESGHLKPGSKGPIFS [TAS2R3]”, the “plasma membrane surface immunostaining intensity” value (GPCR class: Taste) turned out to be 135 ± 22.

On to “MDPLNLSWYDDDLERQNWSRPFNGSDGKADRPHYNYYATLLTLLIAVIVFGNVLVCMAVSREKALQTTTNYLIVSLAVADLLVATLVMPWVVYLEVVGEWKFSRIHCDIFVTLDVMMCTASILNLCAISIDRYTAVAMPMLYNTRYSSKRRVTVMISIVWVLSFTISCPLLFGLNNADQNECIIANPAFVVYSSIVSFYVPFIVTLLVYIKIYIVLRRRRKRVNTKRSSRAFRAHLRAPLKGNCTHPEDMKLCTVIMKSNGSFPVNRRRVEAARRAQELEMEMLSSTSPPERTRYSPIPPSHHQLTLPDPSHHGLHSTPDSPAKPEKNGHAKDHPKIAKIFEIQTMPNGKTRTSLKTMSRRKLSQQKEKKATQMLAIVLGVFIICWLPFFITHILNIHCDCNIPPVLYSAFTWLGYVNSAVNPIIYTTFNIEFRKAFLKILHC [DRD2]”, for which the “plasma membrane surface immunostaining intensity” value (GPCR class: A) turned out to be 1950 ± 620.

Turning to “MLSTSRSRFIRNTNESGEEVTTFFDYDYGAPCHKFDVKQIGAQLLPPLYSLVFIFGFVGNMLVVLILINCKKLKCLTDIYLLNLAISDLLFLITLPLWAHSAANEWVFGNAMCKLFTGLYHIGYFGGIFFIILLTIDRYLAIVHAVFALKARTVTFGVVTSVITWLVAVFASVPGIIFTKCQKEDSVYVCGPYFPRGWNNFHTIMRNILGLVLPLLIMVICYSGILKTLLRCRNEKKRHRAVRVIFTIMIVYFLFWTPYNIVILLNTFQEFFGLSNCESTSQLDQATQVTETLGMTHCCINPIIYAFVGEKFRSLFHIALGCRIAPLQKPVCGGPGVRPGKNVKVTTQGLLDGRGKGKSIGRAPEASLQDKEGA [CCR2]”, the “plasma membrane surface immunostaining intensity” value (GPCR class: A) came out at 137 ± 20.

On to “MKMKSQATMICCLVFFLSTECSHYRSKIHLKAGDKLQSPEGKPKTGRIQEKCEGPCISSSNCSQPCAKDFHGEIGFTCNQKKWQKSAETCTSLSVEKLFKDSTGASRLSVAAPSIPLHILDFRAPETIESVAQGIRKNCPFDYACITDMVKSSETTSGNIAFIVELLKNISTDLSDNVTREKMKSYSEVANHILDTAAISNWAFIPNKNASSDLLQSVNLFARQLHIHNNSENIVNELFIQTKGFHINHNTSEKSLNFSMSMNNTTEDILGMVQIPRQELRKLWPNASQAISIAFPTLGAILREAHLQNVSLPRQVNGLVLSVVLPERLQEIILTFEKINKTRNARAQCVGWHSKKRRWDEKACQMMLDIRNEVKCRCNYTSVVMSFSILMSSKSMTDKVLDYITCIGLSVSILSLVLCLIIEATVWSRVVVTEISYMRHVCIVNIAVSLLTANVWFIIGSHFNIKAQDYNMCVAVTFFSHFFYLSLFFWMLFKALLIIYGILVIFRRMMKSRMMVIGFAIGYGCPLIIAVTTVAITEPEKGYMRPEACWLNWDNTKALLAFAIPAFVIVAVNLIVVLVVAVNTQRPSIGSSKSQDVVIIMRISKNVAILTPLLGLTWGFGIATLIEGTSLTFHIIFALLNAFQGFFILLFGTIMDHKIRDALRMRMSSLKGKSRAAENASLGPTNGSKLMNRQG [ADGRF4]”, for which, where the note is “GPCR class: B”, the “plasma membrane surface immunostaining intensity” value is 386 ± 78.

In the case of “MAETSALPTGFGELEVLAVGMVLLVEALSGLSLNTLTIFSFCKTPELRTPCHLLVLSLALADSGISLNALVAATSSLLRRWPYGSDGCQAHGFQGFVTALASICSSAAIAWGRYHHYCTRSQLAWNSAVSLVLFVWLSSAFWAALPLLGWGHYDYEPLGTCCTLDYSKGDRNFTSFLFTMSFFNFAMPLFITITSYSLMEQKLGKSGHLQVNTTLPARTLLLGWGPYAILYLYAVIADVTSISPKLQMVPALIAKMVPTINAINYALGNEMVCRGIWQCLSPQKREKDRTK [RGR]”, the “plasma membrane surface immunostaining intensity” value (GPCR class: A) came to 125 ± 16.

In the case of “MGNWTAAVTEFVLLGFSLSREVELLLLVLLLPTFLLTLLGNLLIISTVLSCSRLHTPMYFFLCNLSILDILFTSVISPKVLANLGSRDKTISFAGCITQCYFYFFLGTVEFLLLTVMSYDRYATICCPLRYTTIMRPSVCIGTVVFSWVGGFLSVLFPTILISQLPFCGSNIINHFFCDSGPLLALACADTTAIELMDFMLSSMVILCCIVLVAYSYTYIILTIVRIPSASGRKKAFNTCASHLTIVIISSGITVFIYVTPSQKEYLEINKIPLVLSSVVTPFLNPFIYTLRNDTVQGVLRDVWVRVRGVFEKRMRAVLRSRLSSNKDHQGRACSSPPCVYSVKLQC [OR6J1]”, the “plasma membrane surface immunostaining intensity” value (GPCR class: A (Olfactory)) was found to be 279 ± 110.

On to “MNECHYDKHMDFFYNRSNTDTVDDWTGTKLVIVLCVGTFFCLFIFFSNSLVIAAVIKNRKFHFPFYYLLANLAAADFFAGIAYVFLMFNTGPVSKTLTVNRWFLRQGLLDSSLTASLTNLLVIAVERHMSIMRMRVHSNLTKKRVTLLILLVWAIAIFMGAVPTLGWNCLCNISACSSLAPIYSRSYLVFWTVSNLMAFLIMVVVYLRIYVYVKRKTNVLSPHTSGSISRRRTPMKLMKTVMTVLGAFVVCWTPGLVVLLLDGLNCRQCGVQHVKRWFLLLALLNSVVNPIIYSYKDEDMYGTMKKMICCFSQENPERRPSRIPSTVLSRSDTGSQYIEDSISQGAVCNKSTS [LPAR3]”, for which the “plasma membrane surface immunostaining intensity” value (GPCR class: A) was 5905 ± 32.

As for “METNFSIPLNETEEVLPEPAGHTVLWIFSLLVHGVTFVFGVLGNGLVIWVAGFRMTRTVNTICYLNLALADFSFSAILPFRMVSVAMREKWPFGSFLCKLVHVMIDINLFVSVYLITIIALDRCICVLHPAWAQNHRTMSLAKRVMTGLWIFTIVLTLPNFIFWTTISTTNGDTYCIFNFAFWGDTAVERLNVFITMAKVFLILHFIIGFSVPMSIITVCYGIIAAKIHRNHMIKSSRPLRVFAAVVASFFICWFPYELIGILMAVWLKEMLLNGKYKIILVLINPTSSLAFFNSCLNPILYVFMGRNFQERLIRSLPTSLERALTEVPDSAQTSNTDTTSASPPEETELQAM [FPR3]”, where the note is “GPCR class: A”, the “plasma membrane surface immunostaining intensity” value was determined as 6430 ± 58.

As for “MARENSTFNSDFILLGIFNHSPTHTFLFFLVLAIFSVAFMGNSVMVLLIYLDTQLHTPMYLLLSQLSLMDLMLICTTVPKMAFNYLSGSKSISMAGCATQIFFYTSLLGSECFLLAVMAYDRYTAICHPLRYTNLMSPKICGLMTAFSWILGSTDGIIDVVATFSFSYCGSREIAHFFCDFPSLLILSCSDTSIFEKILFICCIVMIVFPVAIIIASYARVILAVIHMGSGEGRRKAFTTCSSHLLVVGMYYGAALFMYIRPTSDRSPTQDKMVSVFYTILTPMLNPLIYSLRNKEVTRAFMKILGKGKSGE [OR2M3]”, the “plasma membrane surface immunostaining intensity” value (GPCR class: A (Olfactory)) amounted to 138 ± 19.

In the case of “MASPALAAALAVAAAAGPNASGAGERGSGGVANASGASWGPPRGQYSAGAVAGLAAVVGFLIVFTVVGNVLVVIAVLTSRALRAPQNLFLVSLASADILVATLVMPFSLANELMAYWYFGQVWCGVYLALDVLFCTSSIVHLCAISLDRYWSVTQAVEYNLKRTPRRVKATIVAVWLISAVISFPPLVSLYRQPDGAAYPQCGLNDETWYILSSCIGSFFAPCLIMGLVYARIYRVAKLRTRTLSEKRAPVGPDGASPTTENGLGAAAGAGENGHCAPPPADVEPDESSAAAERRRRRGALRRGGRRRAGAEGGAGGADGQGAGPGAAESGALTASRSPGPGGRLSRASSRSVEFFLSRRRRARSSVCRRKVAQAREKRFTFVLAVVMGVFVLCWFPFFFSYSLYGICREACQVPGPLFKFFFWIGYCNSSLNPVIYTVFNQDFRRSFKHILFRRRRRGFRQ [ADRA2C]”, for the setting “GPCR class: A”, the “plasma membrane surface immunostaining intensity” value turned out to be 1030 ± 270.

Take “MTPNSTGEVPSPIPKGALGLSLALASLIITANLLLALGIAWDRRLRSPPAGCFFLSLLLAGLLTGLALPTLPGLWNQSRRGYWSCLLVYLAPNFSFLSLLANLLLVHGERYMAVLRPLQPPGSIRLALLLTWAGPLLFASLPALGWNHWTPGANCSSQAIFPAPYLYLEVYGLLLPAVGAAAFLSVRVLATAHRQLQDICRLERAVCRDEPSALARALTWRQARAQAGAMLLFGLCWGPYVATLLLSVLAYEQRPPLGPGTLLSLLSLGSASAAAVPVAMGLGDQRYTAPWRAAAQRCLQGLWGRASRDSPGPSIAYHPSSQSSVDLDLN [GPBAR1]”: the “plasma membrane surface immunostaining intensity” value (GPCR class: A) worked out at 5940 ± 84.

Take “MWQEYYFLNVFFPLLKVCCLTINSHVVILLPWECYHLIWKILPYIGTTVGSMEEYNTSSTDFTFMGLFNRKETSGLIFAIISIIFFTALMANGVMIFLIQTDLRLHTPMYFLLSHLSLIDMMYISTIVPKMLVNYLLDQRTISFVGCTAQHFLYLTLVGAEFFLLGLMAYDRYVAICNPLRYPVLMSRRVCWMIIAGSWFGGSLDGFLLTPITMSFPFCNSREINHFFCEAPAVLKLACADTALYETVMYVCCVLMLLIPFSVVLASYARILTTVQCMSSVEGRKKAFATCSSHMTVVSLFYGAAMYTYMLPHSYHKPAQDKVLSVFYTILTPMLNPLIYSLRNKDVTGALKRALGRFKGPQRVSGGVF [OR2T1]”: the “plasma membrane surface immunostaining intensity” value (GPCR class: A (Olfactory)) was 451 ± 170.

In the case of “MDISEGNKTLVTEFVLTGLTDRPWLHVLFFVVFLVVYLITMVGNLGLIVLIWNDPHLHMPMYLFLGGLAFSDACTSTSITPRMLVNFLDKTAMISLAECITQFYFFASSATTECFLLVMMAYDRYVAICNPLLYPVMMSNKLSAQLLSISYVIGFLHPLVHVSLLLRLTFCRFNIIHYFYCEILQLFKISCNGPSINALMIFIFGAFIQIPTLMTIIISYTRVLFDILKKKSEKGRSKAFSTCGAHLLSVSLYYGTLIFMYVRPASGLAEDQDKVYSLFYTIIIPLLNPFIYSLRNKKVMHALRRVIRK [OR5AC2]”, the “plasma membrane surface immunostaining intensity” value (GPCR class: A (Olfactory)) is 166 ± 48.

The record behind these values is the supplement of paper PMC12458215.
